The results in this text go back to patent publication US20180127483A1 (CHILDREN S MEDICAL CENTER, published 2018).

This experiment has as its target T1, recombinant human Flt-1/Fc chimera (R&D System 321-FL) (human, UniProt P17948 27-758).
T1 construct: extracellular domain; Bought from R&D Systems; also called VEGF-R1 extracellular domain Ig fusion; full-length VEGF-Receptor 1 extracellular domain; Fc part of the bought chimera not given
Briefly: solution equilibrium: 10 pM human VEGF165 incubated overnight with 0.05-1000 pM binder, unbound VEGF165 measured by ELISA, curve fit. Here is the method: FIG. 4. Binding affinity analysis of VEGF-binding proteins. In brief, a fixed concentration of human VEGF₁₆₅ (10 pM) was incubated overnight at room temperature with varying concentrations (0.05 pM to 1000 pM) of VEGF binding proteins. 20 hours later, concentration of unbound VEGF₁₆₅ was measured by ELISA. Binding curves were fitted using Prizm software.

T1 sequence (P17948 27-758, change not shown): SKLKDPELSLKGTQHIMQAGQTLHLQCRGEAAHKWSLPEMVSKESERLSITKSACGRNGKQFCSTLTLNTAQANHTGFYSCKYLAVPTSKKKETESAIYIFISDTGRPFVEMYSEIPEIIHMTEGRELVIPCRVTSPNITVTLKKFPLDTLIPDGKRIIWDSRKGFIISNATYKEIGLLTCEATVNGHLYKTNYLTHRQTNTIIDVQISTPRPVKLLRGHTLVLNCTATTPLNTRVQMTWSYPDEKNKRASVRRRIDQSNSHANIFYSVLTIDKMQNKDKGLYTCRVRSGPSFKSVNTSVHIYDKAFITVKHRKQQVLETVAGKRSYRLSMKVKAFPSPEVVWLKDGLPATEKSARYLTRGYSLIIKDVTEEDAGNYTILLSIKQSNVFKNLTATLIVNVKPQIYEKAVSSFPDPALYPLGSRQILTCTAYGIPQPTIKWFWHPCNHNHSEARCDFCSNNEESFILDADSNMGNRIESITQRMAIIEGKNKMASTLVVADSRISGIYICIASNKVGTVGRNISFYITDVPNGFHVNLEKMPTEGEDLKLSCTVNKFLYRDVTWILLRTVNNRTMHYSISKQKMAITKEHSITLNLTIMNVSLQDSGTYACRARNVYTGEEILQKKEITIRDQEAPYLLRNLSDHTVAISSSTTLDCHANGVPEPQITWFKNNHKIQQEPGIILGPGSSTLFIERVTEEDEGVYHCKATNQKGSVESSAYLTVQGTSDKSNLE

B1: human VEGF165 (ligand, UniProt P15692-4 27-191, looked up)
chain: APMAEGGGQNHHEVVKFMDVYQRSYCHPIETLVDIFQEYPDEIEYIFKPSCVPLMRCGGCCNDEGLECVPTEESNITMQIMRIKPHQGQHIGEMSFLQHNKCECRPKKDRARQENPCGPCSERRKHLFVQDPQTCKCSCKNTDSRCKARQLELNERTCRCDKPRR
One may read the Kd as the equilibrium constant for the complex coming apart. In the case of B1, the Kd is 0.0259 nM.
